Positions count from the first letter of the chain named. Names may count otherwise. “And” between values parts separate entries of the source, which are not always exact repeats. Identical values can stand only once.
Key:
[1] = target: T1, Human IL22 (human, UniProt Q9GZX6 34-179); assay: SPR Biacore T200; Fab captured on anti-rabbit F(ab')2, IL22 titrated 0.6-50 nM
T1 construct: IL22 of the Biacore and cell assays
T1 sequence: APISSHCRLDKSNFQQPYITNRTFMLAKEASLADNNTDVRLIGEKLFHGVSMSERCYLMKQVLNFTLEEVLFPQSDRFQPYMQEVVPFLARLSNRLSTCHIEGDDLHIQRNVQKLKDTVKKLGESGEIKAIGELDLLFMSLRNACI
Procedure: (§1) HBS-EP+ buffer (10 mM HEPES pH 7.4, 0.15 M NaCl, 3 mM EDTA, 0.05% Surfactant P20, GE Healthcare) was used as the running buffer with a flow rate of 10 μL/min.
(§2) The surface was generated by 2×10 μL injection of 50 mM HCl, interspersed by a 10 μL injection of 5 mM NaOH at flowrate of 10 μL/min. Background subtraction binding curves were analyzed using the Biacore T200 evaluation software following standard procedures. Kinetic parameters were determined from the fitting algorithm.

[2] = target: T2, Mouse IL22 (mouse, UniProt Q9JJY9 34-179); assay: as above
T2 sequence (looked up): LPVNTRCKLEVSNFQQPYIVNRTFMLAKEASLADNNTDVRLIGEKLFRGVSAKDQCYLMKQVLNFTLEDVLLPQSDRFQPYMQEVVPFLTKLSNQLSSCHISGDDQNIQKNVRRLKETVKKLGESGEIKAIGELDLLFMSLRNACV
Procedure: as §1, §2

[3] = target: T3, Cynomolgus IL22 (cynomolgus, UniProt G7PHZ7 34-179); assay: as above
T3 construct: also called Cyno IL22; Cyno IL-22
T3 sequence: T1 sequence with I3V, L32S, H48R, F72L, R95S, R110K
Procedure: as §1, §2

[4] = target: T1, Human IL22; assay: SPR (Biacore); human IL22
[5] = target: T1, Human IL22; assay: SPR Biacore 8K; Fab captured on anti-human F(ab')2, human IL22 titrated 617 pM-50 nM; single experiment
Procedure: The assay was run on Biacore 8K instrument (GE Healthcare) and BIA (Biomolecular Interaction Analysis) was performed using Biacore 8000 evaluation software Affinipure Goat anti-human IgG-F(ab′)2 fragment specific (Jackson ImmunoResearch) was immobilized on a CM5 Sensor Chip via amine coupling chemistry to a capture level of ˜5000 response units (RUs). HBS-EP+ buffer (10 mM HEPES pH 7.4, 0.15 M NaCl, 3 mM EDTA, 0.05% Surfactant P20, GE Healthcare) was used as the running buffer with a flow rate of 10 μL/min.
The surface was generated by 2×10 μL injections of 50 mM HCl, interspersed by a 5 μL injection of 5 mM NaOH at flowrate of 10 μL/min. Background subtraction binding curves were analyzed using the Insight evaluation software following standard procedures. Kinetic parameters were determined from the fitting algorithm.

[6] = target: T1, Human IL22; assay: SPR (Biacore); Fab variant, human IL22
[7] = target: T1, Human IL22; assay: SPR
[8] = target: T1, Human IL22; assay: SPR Biacore T200; mean KD
Procedure: BIA (Biomolecular Interaction Analysis) was performed using T200 (GE Healthcare). Affinipure IgG-F(ab′)₂ Fragment goat anti-human IgG, F(ab′)₂ fragment specific (Jackson ImmunoResearch) was immobilized on a CM5 Sensor Chip via amine coupling chemistry to a capture level of ˜5000 response units (RUs). HBS-EP+buffer (10 mM HEPES pH 7.4, 0.15 M NaCl, 3 mM EDTA, 0.05% Surfactant P20, GE Healthcare) was used as the running buffer with a flow rate of 10 μL/min.
The surface was generated by 2×10 μL injections of 50 mM HCl, interspersed by a 10 μL injection of 5 mM NaOH at flowrate of 10 μL/min. Background subtraction binding curves were analyzed using the T200 evaluation software (version 3.0) following standard procedures. Kinetic parameters were determined from the fitting algorithm.

[9] = target: T1, Human IL22; assay: SPR (Biacore); human IL22; remark: listed apart in the source
[10] = target: T1, Human IL22; assay: cell-based or functional assay
[11] = target: T4, Human IL13 (human, UniProt P35225 35-146, limits assumed); assay: cell-based or functional assay
[12] = target: T4, Human IL13; assay: cell-based or functional assay; remark: listed apart in the source
[13] = target: T1, Human IL22; assay: cell-based or functional assay; remark: listed apart in the source
[14] = target: T4, Human IL13; assay: cell-based or functional assay; remark: listed apart in the source
[15] = target: T4, Human IL13; assay: cell-based or functional assay; remark: listed apart in the source
[16] = target: T4, Human IL13; assay: cell-based or functional assay; remark: listed apart in the source
[17] = target: T1, Human IL22; assay: cell-based or functional assay; remark: listed apart in the source
[18] = target: T1, Human IL22; assay: cell-based or functional assay; remark: listed apart in the source

B1: Rabbit 11041 Fab (Fab, V domains shown)
VH: QSVEESGGRLVTPGTPLTLTCTVSGFSLSSYAMIWVRQAPGEGLEWIGIIDIDGSTYYASWAKGRFTISRTSTTVDLKITSPTTGDTATYFCARDRFVGVDIFDPWGPGTLVTVSS
VL: AVVLTQTASPVSAPVGGTVTIKCQASEDIYTNLAWYQQKPGQPPKLLIYWASTLASGVPSRFKGSGSGTEFTLTISDLECADAATYYCQACVYGNSADSRYTFGGGTEVVVK
notes: Rabbit Fab
Kd [1]: 0.34 nM | koff [1]: 0.00029 s⁻¹ | kon [1]: 870000 M⁻¹ s⁻¹ | Kd [2]: 3 nM | koff [2]: 0.11 s⁻¹ | kon [2]: 3.7e+07 M⁻¹ s⁻¹ | Kd [3]: 1.1 nM | koff [3]: 0.00028 s⁻¹ | kon [3]: 260000 M⁻¹ s⁻¹

B2: 11041 (parental) (Fab, V domains shown)
VH: B1 VH
VL: B1 VL
Kd [4]: 0.569 nM

B3: 11041gL13gH14 Fab (Fab, V domains shown)
VH: EVQLVESGGGLVQPGGSLRLSCAVSGFSLSSYAMIWVRQAPGKGLEWIGIIDIEGSTYYASWAKGRFTISRDNSKNTVYLQMNSLRAEDTAVYYCARDRFVGVDIFDPWGQGTLVTVSS
VL: AVQLTQSPSSLSASVGDRVTITCQASEDIYTNLAWYQQKPGKAPKLLIYWASTLASGVPSRFSGSGSGTDFTLTISSLQPEDFATYYCQASVYGNAADSRYTFGGGTKVEIKR
notes: also called 11041gL6 C91S S96A gH5 D54E
Kd [5]: 0.0125 nM | kon [5]: 1.01e+06 M⁻¹ s⁻¹ | Kd [6]: 0.0125 nM

B4: 11041gL1 C91V gH1 (Fab, V domains shown)
VH: B3 VH with E54D, N73S
VL: AVVLTQSPSSLSASVGDRVTITCQASEDIYTNLAWYQQKPGKAPKLLIYWASTLASGVPSRFSGSGSGTDFTLTISSLQPEDFATYYCQAVVYGNSADSRYTFGGGTKVEIK
notes: V-regions only; also called 11041gL3gH1
fold increase in binding affinity against 11041gL1gH1 [7]: 15 fold | Kd [6]: 0.0419 nM

B5: 11041gL1 C91S gH1 (Fab, V domains shown)
VH: B3 VH with E54D, N73S
VL: B4 VL with V91S
notes: V-regions only; also called 11041gL2gH1
fold increase in binding affinity against 11041gL1gH1 [7]: 50 fold | Kd [6]: 0.0124 nM

B6: TrYbe molecule with 11070 gL7gH16 IL22 domain (other)
VL: DIQMTQSPSSVSASVGDRVTITCKASKTISKYLAWYQQKPGKANKLLIYSGSTLQSGVPSRFSGSGSGTDFTLTISSLQPEDFATYYCQQHNEYPLTFGQGTKLEIK
VH: EVQLQESGPGLVKPSQTLSLTCTVSGFSLTSYSVHWVRQHPGKGLEWIGRMWSDGDTSYNTAFTSRLTISRDTSKNQVSLKLSSVTAADTAVYYCARSLDFYYDTTLAFWGQGTTVTVSS
Kd [8]: < 0.1 nM

B7: 11070 (Fab, V domains shown)
VH: EVQLQESGPGLVQPSQTLSPTCTVSGFSLTSYSVHWVRQHSGKSLEWMGRMWSDGDTSYNSAFTSRLSITRDTSKSQVFLKMNSLQTEDTGTYYCARSLDFYYDTTLAFWGPGTTVTVSS
VL: DIVMTQTPSNLAASPGESVSINCKASKTISKYLAWYQQKPGKANKLLIYSGSTLQSGTPSRFSGSGSSTDFTLTIRNLEPEDFGLYYCQQHNEYPLTFGSGTKLEIK
Kd [9]: 0.049 nM

B8: IL13H/IL22K knob in hole bispecific (bispecific antibody, human IgG4 S228P, kappa)
heavy 1: not shown
light 1: AVQLTQSPSSLSASVGDRVTITCQASEDIYTNLAWYQQKPGKAPKLLIYWASTLASGVPSRFSGSGSGTDFTLTISSLQPEDFATYYCQASVYGNAADSRYTFGGGTKVEIKRTVAAPSVFIFPPSDEQLKSGTASVVCLLNNFYPREAKVQWKVDNALQSGNSQESVTEQDSKDSTYSLSSTLTLSKADYEKHKVYACEVTHQGLSSPVTKSFNRGEC
heavy 2: EVQLVQSGAEVKKPGSSVKVSCKASGYSFTSYYIHWVRQAPGQGLEWMGRIGPGSGDINYNEKFKGRATFTVDKSTSTAYMELSSLRSEDTAVYYCARFHYDGADWGQGTLVTVSSASTKGPSVFPLAPCSRSTSESTAALGCLVKDYFPEPVTVSWNSGALTSGVHTFPAVLQSSGLYSLSSVVTVPSSSLGTKTYTCNVDHKPSNTKVDKRVESKYGPPCPPCPAPEFLGGPSVFLFPPKPKDTLMISRTPEVTCVVVDVSQEDPEVQFNWYVDGVEVHNAKTKPREEQFNSTYRVVSVLTVLHQDWLNGKEYKCKVSNKGLPSSIEKTISKAKGQPREPQVYTLPPSQEEMTKNQVSLSCAVKGFYPSDIAVEWESNGQPENNYKTTPPVLDSDGSFFLVSRLTVDKSRWQEGNVFSCSVMHEALHNHYTQKSLSLSLGK
light 2: DIQMTQSPSSLSASVGDRVTITCKASQNINENLDWYQQKPGKAPKLLIYYTDILQTGIPSRFSGSGSGTDYTLTISSLQPEDFATYYCYQYYSGYTFGQGTKLEIKRTVAAPSVFIFPPSDEQLKSGTASVVCLLNNFYPREAKVQWKVDNALQSGNSQESVTEQDSKDSTYSLSSTLTLSKADYEKHKVYACEVTHQGLSSPVTKSFNRGEC
IC50 (M) Geomean; IL22-induced IL-10 release, COLO205 cells; PB8919 (N = 2) [10]: 5.73e-11 M | IC50 (pM) Geomean, N = 2; STAT-6 reporter assay, HEK-Blue IL-4/IL13 cells; PB8842 [11]: 4.9 pM | IC50 (pM), concatenated IC50 values; STAT-6 reporter assay; PB8842 [11]: 4.6 pM and 5.2 pM | IC50 (pM) Geomean, N = 2; STAT-6 reporter assay, HEK-Blue IL-4/IL13 cells; PB8919 [12]: 2.3 pM | IC50 (pM), concatenated IC50 values; STAT-6 reporter assay; PB8919 [12]: 2 pM and 2.7 pM | IC50 (M) Geomean; IL22-induced IL-10 release, COLO205 cells; PB8842 (N = 2) [13]: 7.13e-11 M | IC50 (read off the curve), inhibition of eotaxin-3 secretion, primary human keratinocytes stimulated with IL-13 and IL-22 at 100 ng/ml [14]: ~0.8 nM

B9: IL13K/IL22H knob in hole bispecific (bispecific antibody, human IgG4 S228P, kappa)
heavy 1: not shown
light 1: B8 light 2
heavy 2: EVQLVESGGGLVQPGGSLRLSCAVSGFSLSSYAMIWVRQAPGKGLEWIGIIDIEGSTYYASWAKGRFTISRDNSKNTVYLQMNSLRAEDTAVYYCARDRFVGVDIFDPWGQGTLVTVSSASTKGPSVFPLAPCSRSTSESTAALGCLVKDYFPEPVTVSWNSGALTSGVHTFPAVLQSSGLYSLSSVVTVPSSSLGTKTYTCNVDHKPSNTKVDKRVESKYGPPCPPCPAPEFLGGPSVFLFPPKPKDTLMISRTPEVTCVVVDVSQEDPEVQFNWYVDGVEVHNAKTKPREEQFNSTYRVVSVLTVLHQDWLNGKEYKCKVSNKGLPSSIEKTISKAKGQPREPQVYTLPPSQEEMTKNQVSLSCAVKGFYPSDIAVEWESNGQPENNYKTTPPVLDSDGSFFLVSRLTVDKSRWQEGNVFSCSVMHEALHNHYTQKSLSLSLGK
light 2: B8 light 1
IC50 (pM) Geomean, N = 2; STAT-6 reporter assay, HEK-Blue IL-4/IL13 cells; PB8841 [15]: 3.4 pM | IC50 (pM) Geomean, N = 2; STAT-6 reporter assay, HEK-Blue IL-4/IL13 cells; PB8920 [16]: 2.9 pM | IC50 (pM), concatenated IC50 values; STAT-6 reporter assay; PB8920 [16]: 2.1 pM and 4 pM | IC50 (M) Geomean; IL22-induced IL-10 release, COLO205 cells; PB8920 (N = 2) [17]: 6.38e-11 M | IC50 (M) Geomean; IL22-induced IL-10 release, COLO205 cells; PB8841 (N = 2) [18]: 6.59e-11 M | IC50 (read off the curve), inhibition of eotaxin-3 secretion, primary human keratinocytes stimulated with IL-13 and IL-22 at 100 ng/ml [14]: ~5 nM

— patent publication US20240067758A1 (UCB, published 2024)
